Source: US20220162261A1 (published 2022)
Where two headings read alike, the source gives them in different places. Numbered stars: 1 amine (or outer) side, 2 acyl side, 3 side chain; on linkers, the order of the positions; unused ones are H or OH. Bridge positions count the residues as written; N and C are the ends. Square brackets hold non-standard residues; d marks the D form. Asp(OMe) = L-aspartic acid beta-methyl ester, COC(=O)C[C@H](N[*:1])C(=O)[*:2]; Phe(3,4-Cl2) = N[C@@H](Cc1ccc(Cl)c(Cl)c1)C(=O)O; Phe(4-tBu) = CC(C)(C)c1ccc(C[C@H](N)C(=O)O)cc1; Phe(2,4-Cl2) = N[C@@H](Cc1ccc(Cl)cc1Cl)C(=O)O; NMeR = CN[C@@H](CCCNC(=N)N)C(=O)O; Pen = CC(C)(S)[C@H](N)C(=O)O; βAla = NCCC(=O)O

Assays:
[1] = target: T1, rh integrin α4β7 (R&D Systems #5397-A30) (human, UniProt P13612 34-970; P26010 20-723); assay: competition ELISA vs MAdCAM-1
T1 construct: bought; coated on a nickel coated plate; also called immobilized α4β7; immobilized α4β7 integrin protein

[2] = target: T2, human α4β7 integrin on cells (human, UniProt P13612 34-1032; P26010 20-798); assay: RPMI8866 cell adhesion to MAdCAM-1
T2 construct: whole, on cells; also called α4β7 cell (Hu); RPMI8866 cells

[3] = target: T3, α4β1 (R&D Systems #5668-A4) (UniProt P13612 34-970; P05556 21-728, limits assumed); assay: competition ELISA vs VCAM-1
T3 construct: bought; also called soluble α4β1

[4] = target: T4, human α4β1 integrin on cells (human, UniProt P13612 34-1032; P05556 21-798); assay: Jurkat cell adhesion to VCAM-1
T4 construct: whole, on cells; also called α4β1 cell; Jurkat cells

[5] = target: T1, rh integrin α4β7 (R&D Systems #5397-A30); assay: competition ELISA vs MAdCAM-1; remark: listed apart in the source
[6] = target: T2, human α4β7 integrin on cells; assay: RPMI8866 cell adhesion to MAdCAM-1; remark: listed apart in the source

Binder	IC50 [1]	IC50 [2]	IC50 [3]	IC50 [4]	IC50 [5]	IC50 [6]
Ac-CRSDTLCGEK-NH2 (disulfide 1-7 (inferred), also called peptide 196) [SEQ ID NO: 196]	87 nM	6660 nM	4810 nM	> 100000 nM	–	–
H-[βAla][Pen][NMeR]SDTL[Pen]WE-NH2 (disulfide 2-8; SMILES CC(C)C[C@@H]1NC(=O)[C@H]([C@@H](C)O)NC(=O)[C@H](CC(=O)O)NC(=O)[C@H](CO)NC(=O)[C@H](CCCNC(=N)N)N(C)C(=O)[C@@H](NC(=O)CCN)C(C)(C)SSC(C)(C)[C@@H](C(=O)N[C@@H](Cc2c[nH]c3ccccc23)C(=O)N[C@@H](CCC(=O)O)C(N)=O)NC1=O) [SEQ ID NO: 52]	–	–	–	–	> 10 nM	> 100 nM
Ac-CRSDTLCGE-NH2 (disulfide 1-7 (inferred), also called peptide 194) [SEQ ID NO: 194]	97 nM	590 nM	2020 nM	–	–	–
Ac-[Pen][NMeR]S[Asp(OMe)]TL[Pen]WE[dK]-NH2 (disulfide 1-7; also: Biotine, site of attachment not given here) [SEQ ID NO: 69]	–	–	–	–	> 10 nM	> 100 nM
Ac-[Pen][NMeR]S[Asp(OMe)]TL[Pen]WE[dK]-NH2 (disulfide 1-7; not fully specified (residue 10); printed as (Ac Pen N-Me-R S D(OMe) T L Pen W E k NH2)2 DIG, disulfide Pen-Pen; also: homodimer: two subunits linked by DIG via D-Lys10 side chain) [SEQ ID NO: 73]	–	–	–	–	≤ 10 nM	≤ 10 nM
Ac-[Pen][NMeR]SDTL[Pen][Phe(2,4-Cl2)]E[dK]-NH2 (disulfide 1-7; not fully specified (residue 10); printed as (Ac Pen N-Me-R S D T L Pen F(2,4-diCl) E k NH2)2 DIG, disulfide Pen-Pen; also: dimer, two subunits joined by DIG linker) [SEQ ID NO: 42]	–	–	–	–	≤ 10 nM	≤ 10 nM
Ac-[Pen][NMeR]SDTL[Pen][Phe(4-tBu)]-OH (disulfide 1-7; SMILES CC(=O)N[C@@H]1C(=O)N(C)[C@@H](CCCNC(=N)N)C(=O)N[C@@H](CO)C(=O)N[C@@H](CC(=O)O)C(=O)N[C@@H]([C@@H](C)O)C(=O)N[C@@H](CC(C)C)C(=O)N[C@H](C(=O)N[C@@H](Cc2ccc(C(C)(C)C)cc2)C(=O)O)C(C)(C)SSC1(C)C) [SEQ ID NO: 151]	–	–	–	–	> 10 nM	> 50 nM
Ac-[Pen][NMeR]SDTL[Pen][Phe(3,4-Cl2)]E[dK]-NH2 (disulfide 1-7; not fully specified (residue 10); printed as (Ac Pen N-Me-R S D T L Pen F(3,4-diCl) E k NH2)2 DIG, disulfide Pen-Pen; also: dimer, two subunits joined by DIG linker) [SEQ ID NO: 43]	–	–	–	–	≤ 10 nM	> 10 nM
Ac-CRSDTLC-NH2 (disulfide 1-7 (inferred), also called peptide 195) [SEQ ID NO: 195]	97 nM	1220 nM	2880 nM	–	–	–
XRSDTLXWE (Cyclo [Pen N-Me-R S D T L Pen W e]; disulfide Pen-Pen) [SEQ ID NO: 145]	–	–	–	–	504 nM	> 10000 nM
Ac-CRSDTLCGEK-NH2 (disulfide 1-7 (inferred); also: dimer linked by PEG25, attachment not given here, also called peptide 197) [SEQ ID NO: 197]	36 nM	301 nM	964 nM	> 100000 nM	–	–
cyclo([Pen][NMeR]SDTL[Pen]WE) (disulfide 1-7; SMILES CC(C)C[C@@H]1NC(=O)[C@H]([C@@H](C)O)NC(=O)[C@H](CC(=O)O)NC(=O)[C@H](CO)NC(=O)[C@H](CCCNC(=N)N)N(C)C(=O)[C@H]2NC(=O)[C@H](CCC(=O)O)NC(=O)[C@H](Cc3c[nH]c4ccccc34)NC(=O)[C@@H](NC1=O)C(C)(C)SSC2(C)C) [SEQ ID NO: 144]	–	–	–	–	364 nM	> 10000 nM

Now from value to binder:

IC50 [1]	IC50 [2]	IC50 [3]	IC50 [4]	IC50 [5]	IC50 [6]	Binder
2.4 nM	26 nM	444 nM	–	–	–	Ac-C[NMeR]SDTL[Pen]E[dK]-NH2 (disulfide 1-7; also: homodimer via DIG linker on D-Lys9 side chains, also called peptide 205) [SEQ ID NO: 205]
30.5 nM	412 nM	–	–	–	–	XRSDTLXWK (Ac Pen N-Me-R S D T L Pen W k NH2; disulfide Pen-Pen, also called peptide 208) [SEQ ID NO: 208]
20 nM	1120 nM	1290 nM	> 100000 nM	–	–	Ac-C[NMeR]SDTLCGE-NH2 (disulfide 1-7 (inferred), also called peptide 198) [SEQ ID NO: 198]
1 nM	28 nM	1240 nM	–	–	–	Ac-C[NMeR]SDTLCGEK-OH (disulfide 1-7 (inferred); also: dimer linked by DIG, attachment not given here, also called peptide 201) [SEQ ID NO: 201]
3 nM	96 nM	16700 nM	> 100000 nM	–	–	Ac-C[NMeR]SDTLCK-OH (disulfide 1-7 (inferred); also: dimer linked by PEG25, attachment not given here, also called peptide 200) [SEQ ID NO: 200]
87 nM	11000 nM	1620 nM	> 100000 nM	–	–	Ac-C[NMeR]SDTL[Pen][dK]-NH2 (disulfide 1-7; SMILES CC(=O)N[C@H]1CSSC(C)(C)[C@@H](C(=O)N[C@H](CCCCN)C(N)=O)NC(=O)[C@H](CC(C)C)NC(=O)[C@H]([C@@H](C)O)NC(=O)[C@H](CC(=O)O)NC(=O)[C@H](CO)NC(=O)[C@H](CCCNC(=N)N)N(C)C1=O) [SEQ ID NO: 202]
26 nM	49 nM	–	–	–	–	Ac-[Pen]RSDTLC[dK]-NH2 (disulfide 1-7; also: homodimer via DIG linker on D-Lys8 side chains, also called peptide 207) [SEQ ID NO: 207]
58 nM	4690 nM	> 100000 nM	–	–	–	Ac-C[NMeR]SDTLCGEK-OH (disulfide 1-7 (inferred), also called peptide 199) [SEQ ID NO: 199]
97 nM	–	–	–	–	–	Ac-[Pen]RSDTLC[dK]-NH2 (disulfide 1-7; SMILES CC(=O)N[C@@H]1C(=O)N[C@@H](CCCNC(=N)N)C(=O)N[C@@H](CO)C(=O)N[C@@H](CC(=O)O)C(=O)N[C@@H]([C@@H](C)O)C(=O)N[C@@H](CC(C)C)C(=O)N[C@H](C(=O)N[C@H](CCCCN)C(N)=O)CSSC1(C)C, also called peptide 206) [SEQ ID NO: 206]
